How the values were obtained:
[1] = molecular target: T1, mo-CD96 (soluble, Table 5) (mouse, UniProt Q3U0X8 22-536, limits assumed); experiment: SPR 25C, IgG on Protein A, CD96 analyte
T1 sequence (looked up): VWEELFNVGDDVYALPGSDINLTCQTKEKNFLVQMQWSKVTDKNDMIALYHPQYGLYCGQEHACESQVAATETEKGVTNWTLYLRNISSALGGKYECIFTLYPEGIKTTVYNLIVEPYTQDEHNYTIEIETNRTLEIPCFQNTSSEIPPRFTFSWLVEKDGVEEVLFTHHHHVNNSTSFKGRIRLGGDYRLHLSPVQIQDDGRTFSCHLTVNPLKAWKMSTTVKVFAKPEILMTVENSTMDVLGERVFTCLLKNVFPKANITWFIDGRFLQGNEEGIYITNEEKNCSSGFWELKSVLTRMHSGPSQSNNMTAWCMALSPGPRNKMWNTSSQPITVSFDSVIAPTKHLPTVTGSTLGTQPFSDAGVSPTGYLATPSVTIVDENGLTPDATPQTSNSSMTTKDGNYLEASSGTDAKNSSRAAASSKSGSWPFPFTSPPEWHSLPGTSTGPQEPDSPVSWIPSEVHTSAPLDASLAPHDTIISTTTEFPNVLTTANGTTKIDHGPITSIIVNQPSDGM
Procedure: (§1) SPR measurement with a BIACORE™ 8K instrument was performed to determine the monovalent binding affinity of mAb1.v7 and h10G1 IgG to hu-CD96, cy-CD96, and mo-CD96. Briefly, antibodies were diluted at 0.5 µg/mL in HBS-P buffer (0.01 M HEPES pH 7.4, 0.15 M NaCl, 0.005% Surfactant P20) and applied to the Protein A chip at 30 µL/min flow rate for 60 s in flow cell 2 (FC2). Then 3-fold serial dilutions of hu-CD96, cy-CD96, or mo-CD96 in HBS-P buffer (0.01 M HEPES pH 7.4, 0.15 M NaCl, 0.005% surfactant P20) from (0.4 nM) to high (100 nM) were injected (flow rate: 30 µL/min) at 25° C. to both flow cell 1 (FC1) and flow cell 2 (FC2). The sensorgram was recorded and subject to reference and buffer subtraction before evaluating by BIACORE® 8K Evaluation Software (version 1.1.1.7442). Association rates ($kon$) and dissociation rates ($koff$) were calculated using a simple one-to-one Langmuir binding model.

[2] = molecular target: T2, hu-CD96 (soluble, isoform 2 extracellular domain) (human, UniProt P40200 22-516, biotinylated in Octet and blocking ELISA); experiment: SPR 25C, IgG on Protein A, CD96 analyte
T2 construct: the assays name only hu-CD96; also called hCD96; biotinylated hu-CD96
T2 sequence: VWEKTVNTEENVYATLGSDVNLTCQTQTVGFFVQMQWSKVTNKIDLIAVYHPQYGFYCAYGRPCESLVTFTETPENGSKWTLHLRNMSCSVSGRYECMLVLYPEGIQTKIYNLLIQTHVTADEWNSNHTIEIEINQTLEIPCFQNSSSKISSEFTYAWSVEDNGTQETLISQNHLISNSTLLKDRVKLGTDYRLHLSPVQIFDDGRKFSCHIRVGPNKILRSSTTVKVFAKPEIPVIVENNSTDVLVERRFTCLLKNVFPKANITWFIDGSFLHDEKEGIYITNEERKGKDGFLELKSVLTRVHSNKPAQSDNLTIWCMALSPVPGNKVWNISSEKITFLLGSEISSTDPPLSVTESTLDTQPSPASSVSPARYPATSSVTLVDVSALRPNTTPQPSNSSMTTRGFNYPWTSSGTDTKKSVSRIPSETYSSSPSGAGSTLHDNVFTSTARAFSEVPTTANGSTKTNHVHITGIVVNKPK
Procedure: as §1

[3] = molecular target: huCD96D1-Fc (human); experiment: Octet, antibody on anti-Fc sensors
Sequence of huCD96D1-Fc (human) (chain, as listed by the source limits assumed): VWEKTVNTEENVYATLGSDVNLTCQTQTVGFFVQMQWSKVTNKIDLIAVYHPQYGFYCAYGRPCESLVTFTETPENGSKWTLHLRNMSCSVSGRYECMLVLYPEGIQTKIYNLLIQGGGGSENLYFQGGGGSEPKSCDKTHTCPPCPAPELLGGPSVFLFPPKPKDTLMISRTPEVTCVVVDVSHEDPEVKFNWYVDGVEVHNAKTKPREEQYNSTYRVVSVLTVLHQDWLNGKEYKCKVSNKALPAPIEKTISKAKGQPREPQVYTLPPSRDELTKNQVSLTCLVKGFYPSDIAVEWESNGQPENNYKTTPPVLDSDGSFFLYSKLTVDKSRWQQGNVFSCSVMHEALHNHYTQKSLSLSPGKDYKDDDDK
Procedure: Domain Binding Site Mapping mAb1.v7 and h10G1 were determined to bind the D1 domain of CD96. Epitope mapping experiments were performed on an OctetRed96 by capturing the antibodies on anti-Fc Octet sensors (ForteBio) and testing their binding to recombinant huCD96D1-Fc and huCD96D1D3.

[4] = molecular target: T3, hu-CD226 on Expi293 cells (human, UniProt Q15762 19-336); experiment: FACS, CD226-transfected Expi293 cells
T3 sequence: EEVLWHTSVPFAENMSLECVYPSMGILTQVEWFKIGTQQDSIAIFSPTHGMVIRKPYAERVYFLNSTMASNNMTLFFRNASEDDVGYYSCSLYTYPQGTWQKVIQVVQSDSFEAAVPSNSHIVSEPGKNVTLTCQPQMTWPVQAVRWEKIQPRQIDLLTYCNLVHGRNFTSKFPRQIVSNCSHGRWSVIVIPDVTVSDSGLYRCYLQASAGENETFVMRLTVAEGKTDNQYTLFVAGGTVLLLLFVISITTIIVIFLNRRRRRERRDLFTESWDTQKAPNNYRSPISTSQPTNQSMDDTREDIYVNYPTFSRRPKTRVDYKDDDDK
Procedure: In order to assess the generated antibodies for secondary binding to CD226, sequences encoding human CD226 ("hu-CD226") (SEQ ID NO: 482) and cyno CD226 ("cy-CD226") (SEQ ID NO: 483) (see Table 26 and Sequence Listing) were each cloned into pcDNA3.1 expression vector and Expi293 cells were separately transfected with plasmid containing either the hu-CD226 or cy-CD226 coding sequence. Starting concentrations of 1 μM and corresponding 3X serial dilutions of each antibody, NGS8, 10G1, and MABT398 (CD226 positive control, EMD Millipore, Burlington, MA, USA), were prepared for staining. Secondary antibodies employed included goat anti-mouse F(ab)2-PE (Invitrogen, Carlsbad, CA, USA) and goat anti-human F(ab)2-PE (Jackson ImmunoResearch, West Grove, PA, USA).
Samples, each containing one million transfected cells, were stained with primary antibody for 1 hr and secondary antibody for 30 min at 4° C. with agitation. Stained cells were washed in FACS buffer (1% BSA in PBS), fixed in 4% freshly prepared paraformaldehyde, and analyzed by flow cytometry. Ten thousand events were collected for each sample and curves, showing the fold change in CD226 binding, were separately plotted for hu-CD226 (FIG. 12A) and cy-CD226 (FIG. 12B) expressing cells.

B1: h10G1 IgG (humanized 10G1) (antibody, V domains shown)
VH: EIQLVQSGSELKKPGASVKVSCKASGYPFTTYGMSWVRQAPGQGLEWMGWINTDSGVPTYADDFKGRFVFSLDTSVSTAYLQISSLKAEDTAVYFCARNIYYGWGNFDYWGQGTLVTVSS
VL: EIVMTQSPDFQSVTPKEKVTITCRASQDIYRNLHWYQQKPDQTPKLLIKHASDSISGIPSRFSGSGSGTDFTLTINSLEAEDAAAYYCLQGYSMPYTFGGGTKVEIKG
notes: human IgG1 N297G
[1]
  binding result: no binding (tested: 100 nM highest)
[2]
  apparent Kd (pooled screen): 1.17 nM
[3]
  binding result: binds

B2: 10G1 (clone 10G1.3G8), purified hybridoma antibody (antibody, V domains shown)
VH: QIQLVQSGPELKKPGETVKISCKASGYPFTTYGMSWVKQAPGKGLKWMGWINTDSGVPTYADDFKGRFAFSLETSANTAYLQINSLKNEDAATYFCARNIYYGWGNFDYWGQGTILTVSS
VL: DILMTQSPTTLSVTPGETVSLSCRASQDIYRNLHWYQQKSQGTPRLLIKHASDSISGIPSRFTGSGSGTDFTLSINSVKPEDEGIYYCLQGYSMPYTFGGGTKLEIK
notes: murine hybridoma IgG
[4]
  EC50: 232 nM

B3: mAb1.v7 IgG (humanized 12F8) (antibody, V domains shown)
VH: EVQLVQSGAEVKKPGASVKVSCKASGFTFTNNWMHWVRQAPGQGLEWIGMIHPNSGITNINEKFKNRVTMTTDTSTSTAYMELRSLRSEDTAVYYCRSDGTYEGYFDYWGQGTLVTVSS
VL: DIQLTQSPSSLSASVGDRVTITCKASQNVGTAIVWYQQKPGKAPKVLIYSASTRYTGVPSRFSGSGSGTDFTLTISSLQPEDFATYYCQQYSSSPLTFGQGTKVEIKG
notes: human IgG1 N297G
[1]
  Kd: ~386 nM
[2]
  Kd: 4.49 nM
[3]
  binding result: binds
